Biological target: T1, V5–AURKB, expressed in HEK293T cells (UniProt Q96GD4 1-344)
T1 construct: Aurora kinase B (AURKB), wild type; plasmid pDEST3.1_nV5-AurkB provided by Malumbres [65]; also called Aurora B; Aurora kinase B; source: HEK293T, transfected, in lysate
Test: co-IP; immunoprecipitation of V5-AURKB from extracts of HEK293T cells co-transfected with GST-VRK1 or HA-VRK1, WT or kinase-dead; VRK1 detected by immunoblot, quantified
Conditions: partners not purified

T1 sequence (Q96GD4 whole entry): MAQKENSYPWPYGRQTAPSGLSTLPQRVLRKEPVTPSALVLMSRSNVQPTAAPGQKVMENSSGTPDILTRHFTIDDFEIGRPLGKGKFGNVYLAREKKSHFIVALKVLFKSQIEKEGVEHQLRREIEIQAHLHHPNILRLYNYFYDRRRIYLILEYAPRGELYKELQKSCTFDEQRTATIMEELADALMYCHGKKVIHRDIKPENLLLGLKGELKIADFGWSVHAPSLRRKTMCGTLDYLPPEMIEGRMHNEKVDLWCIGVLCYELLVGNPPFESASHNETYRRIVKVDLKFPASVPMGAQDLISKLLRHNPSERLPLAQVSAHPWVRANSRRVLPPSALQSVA

| Binder | fold binding against active VRK1 [fold] |
| --- | --- |
| HA–VRK1–K179E, kinase-dead, expressed in HEK293T cells (enzyme, human, UniProt Q99986 1-396, looked up, Vaccinia-related kinase 1 (VRK1), kinase-dead mutant K179E; plasmid pCEFL-HA-VRK1-K179E; also called HA–VRK1–KD; pCEFL–HA–VRK1–K179E; source: HEK293T, transfected, in lysate) MPRVKAAQAGRQSSAKRHLAEQFAVGEIITDMAKKEWKVGLPIGQGGFGCIYLADMNSSESVGSDAPCVVKVEPSDNGPLFTELKFYQRAAKPEQIQKWIRTRKLKYLGVPKYWGSGLHDKNGKSYRFMIMDRFGSDLQKIYEANAKRFSRKTVLQLSLRILDILEYIHEHEYVHGDIEASNLLLNYKNPDQVYLVDYGLAYRYCPEGVHKEYKEDPKRCHDGTIEFTSIDAHNGVAPSRRGDLEILGYCMIQWLTGHLPWEDNLKDPKYVRDSKIRYRENIASLMDKCFPEKNKPGEIAKYMETVKLLDYTEKPLYENLRDILLQGLKAIGSKDDGKLDLSVVENGGLKAKTITKKRKKEIEESKEPGVEDTEWSNTQTEEAIQTRSRTRKRVQK | ~3 |
| GST–VRK1 (K179E), kinase inactive, expressed in HEK293T cells (enzyme, human, UniProt Q99986 1-396, looked up, Vaccinia-related kinase 1 (VRK1), kinase-dead mutant K179E; also called GST-VRK1 KD; kinase-dead VRK1 (K179E); source: HEK293T, transfected, in lysate) MPRVKAAQAGRQSSAKRHLAEQFAVGEIITDMAKKEWKVGLPIGQGGFGCIYLADMNSSESVGSDAPCVVKVEPSDNGPLFTELKFYQRAAKPEQIQKWIRTRKLKYLGVPKYWGSGLHDKNGKSYRFMIMDRFGSDLQKIYEANAKRFSRKTVLQLSLRILDILEYIHEHEYVHGDIEASNLLLNYKNPDQVYLVDYGLAYRYCPEGVHKEYKEDPKRCHDGTIEFTSIDAHNGVAPSRRGDLEILGYCMIQWLTGHLPWEDNLKDPKYVRDSKIRYRENIASLMDKCFPEKNKPGEIAKYMETVKLLDYTEKPLYENLRDILLQGLKAIGSKDDGKLDLSVVENGGLKAKTITKKRKKEIEESKEPGVEDTEWSNTQTEEAIQTRSRTRKRVQK | ~3 |

— publication PMC6003988, “VRK1 and AURKB form a complex that cross inhibit their kinase activity and the phosphorylation of histone H3 in the progression of mitosis” (Cellular and Molecular Life Sciences: CMLS, 2018)
